{"source": "paper doi:10.1101/2021.10.01.462734", "key": {"[1]": {"target": "GFP-mGR GR^dim/Y545A double mutant (mouse)", "assay": "number and brightness"}, "[2]": {"target": "GFP-mGR Y545A (mouse)", "assay": "number and brightness"}, "[3]": {"target": "ancGR2-LBD Y545C mutant, DEX-bound", "assay": "SPR"}, "[4]": {"target": "ancGR2-LBD Y545C mutant, DEX-bound", "assay": "cross-linking"}, "[5]": {"target": "ancGR2-LBD (ancient variant of the glucocorticoid receptor ligand-binding domain), wild type, DEX-bound", "assay": "SPR"}, "[6]": {"target": "ancGR2-LBD (ancient variant of the glucocorticoid receptor ligand-binding domain), wild type, DEX-bound", "assay": "cross-linking"}}, "note": "Where “and” joins values, the source holds several entries; their conditions need not be identical. Identical values can stand only once."}
{"substance": "GFP-mGR GR^dim/Y545A double mutant (natural protein)", "values": [{"measurement": "stoichiometry N", "setting": "[1]", "value": 3}]}
{"substance": "GFP-mGR Y545A (natural protein)", "values": [{"measurement": "stoichiometry N", "setting": "[2]", "value": 4}]}
{"substance": "ancGR2-LBD Y545C mutant, DEX-bound (domain or fragment)", "values": [{"measurement": "kD1 (multisite model, first binding site)", "setting": "[3]", "value": 0.8, "unit": "µM"}, {"measurement": "stoichiometry N", "setting": "[4]", "value": 2}]}
{"substance": "ancGR2-LBD (ancient variant of the glucocorticoid receptor ligand-binding domain), wild type, DEX-bound (domain or fragment)", "values": [{"measurement": "Kd", "setting": "[5]", "value": 15.3, "unit": "µM"}, {"measurement": "kD1 (multisite model, first of two independent binding sites)", "setting": "[5]", "value": 2.2, "unit": "µM"}, {"measurement": "kD2 (multisite model, second of two independent binding sites)", "setting": "[5]", "value": 27.9, "unit": "µM"}, {"measurement": "stoichiometry N", "setting": "[6]", "value": "2 and 4"}]}
